Assay results: patent publication US20260098064A1 (PENN STATE RESEARCH FOUNDATION, published 2026)
Positions count from the first letter of the chain named. Names may count otherwise.

Assays:
[1] = target: the molecule itself; assay: S75 gel filtration during purification, no Ca(II) included; self-association
Procedure: The procedures used for expression in E. coli and purification of LanM_013 were identical to those used for Mex-LanM, except that no Ca(II) was included in the gel filtration step. […] The elution volume of the protein from the S75 column was consistent with a monomer. The purification yielded 80 mg LanM_013 from 2 L culture (40 mg/L).

[2] = target: the molecule itself; assay: ITC, dimer dissociation model; apo Hans-LanM
Procedure: (§1) Isothermal titration calorimetry. The dissociation constants for the dimers of apo, La^III-bound, and Dy^III-bound Hans-LanM were determined by dilutive additions of a concentrated protein stock, followed using ITC on a TA Instruments Low-volume Auto Affinity ITC. The syringe contained 300 μM protein (apo or 2 equiv. Dy^III bound) or 150 μM or 540 μM (2 equiv. La^III bound), and the cell contained 185 μL of a matched buffer (30 mM MOPS, 100 mM KCl, pH 7.0). Titrations were carried out at 30° C. Titrations consisted of a first 0.2 μL injection followed by 17×2 μL injections, unless otherwise noted, with stirring at 125 rpm and 180 s equilibration time between injections. The heats were fitted using NanoAnalyze using the “Dimer Dissociation” model, yielding the dimer dissociation constant (Kdimer), enthalpy of dissociation (ΔH), and entropy of dissociation (ΔS).

[3] = target: the molecule itself; assay: ITC, dimer dissociation model; Dy^III-bound Hans-LanM
Procedure: as §1

[4] = analytical SEC (Superdex S75); Hans-LanM with 3.0 equiv. Dy^III
[5] = analytical SEC (Superdex S75); Hans-LanM with 3.0 equiv. Eu^III
[6] = analytical SEC (Superdex S75); Hans-LanM with 3.0 equiv. Gd^III
[7] = analytical SEC (Superdex S75); Hans-LanM with 3.0 equiv. Ho^III
[8] = analytical SEC (Superdex S75); Hans-LanM with 3.0 equiv. Nd^III
[9] = analytical SEC (Superdex S75); Hans-LanM with 3.0 equiv. Sm^III
[10] = analytical SEC (Superdex S75); Hans-LanM with 3.0 equiv. Tb^III
[11] = target: the molecule itself; assay: ITC and SEC-MALS estimate; La^III-bound against Dy^III-bound Hans-LanM
Procedure: (§2) To provide further support for preferential dimerization in the presence of physiologically relevant LREs, RE complexes of Hans-LanM were analyzed using multi-angle light scattering (MALS) (FIG. 2a, FIG. 9). The La^III, Nd^III, and Gd^III complexes have MWs of 22-25 kDa, indicative of dimers, but MWs decrease starting with Tb^III and continue to Dy^III and Ho^III, at ˜15 kDa (Table 17), in agreement with the SEC data. Ca^II-bound Hans-LanM also indicated a MW of 14.7 kDa. […] The Kd for dimerization (Kdimer) of apo-, La^III-bound, and Dy^III-bound Hans-LanM was determined by isothermal titration calorimetry (ITC) (FIG. 10-12, Table 18). […] Thus, La^III favors Hans-LanM's dimerization by >100-fold over Dy^III.
(§3) Isothermal titration calorimetry. The dissociation constants for the dimers of apo, La^III-bound, and Dy^III-bound Hans-LanM were determined by dilutive additions of a concentrated protein stock, followed using ITC on a TA Instruments Low-volume Auto Affinity ITC. The syringe contained 300 μM protein (apo or 2 equiv. Dy^III bound) or 150 μM or 540 μM (2 equiv. La^III bound), and the cell contained 185 μL of a matched buffer (30 mM MOPS, 100 mM KCl, pH 7.0). Titrations were carried out at 30° C. Titrations consisted of a first 0.2 μL injection followed by 17×2 μL injections, unless otherwise noted, with stirring at 125 rpm and 180 s equilibration time between injections. […]

[12] = analytical SEC (Superdex S75); Hans-LanM (590 µM) with 3.0 equiv. La^III
[13] = target: the molecule itself; assay: ITC, dimer dissociation model, buffer with 5% glycerol; apo wt Hans-LanM
Procedure: as §1
(§4) Table 21. Thermodynamics parameters for WT and R100K Hans-LanM, obtained by fitting ITC thermograms to the dimer dissociation model. These experiments were carried out similarly to those shown in Table 18, except that 5% glycerol was present in the buffer.

[14] = target: the molecule itself; assay: ITC, dimer dissociation model, buffer with 5% glycerol; Dy-bound wt Hans-LanM
Procedure: as §1, §4

[15] = target: the molecule itself; assay: ITC, dimer dissociation model, 5% glycerol; apo wt Hans-LanM; unit not printed (Table 18: kcal/mol)
Procedure: as §1, §4

[16] = target: the molecule itself; assay: ITC, dimer dissociation model, 5% glycerol; apo wt Hans-LanM; unit not printed (Table 18: cal/mol/K)
Procedure: as §1, §4

[17] = target: the molecule itself; assay: ITC, dimer dissociation model, 5% glycerol; Dy-bound wt Hans-LanM; unit not printed (Table 18: kcal/mol)
Procedure: as §1, §4

[18] = target: the molecule itself; assay: ITC, dimer dissociation model, 5% glycerol; Dy-bound wt Hans-LanM; unit not printed (Table 18: cal/mol/K)
Procedure: as §1, §4

[19] = target: the molecule itself; assay: La^III-bound Hans-LanM; no monomerization seen by ITC; upper limit estimated from SEC-MALS peak concentration (FIG. 12)
Procedure: as §2, §3

[20] = target: the molecule itself; assay: ITC dilution of 300 µM protein, dimer dissociation model (Kdimer); apo Hans-LanM; 30 mM MOPS, 100 mM KCl, pH 7.0, 30 C
Procedure: as §1

[21] = target: the molecule itself; assay: ITC dilution of 300 µM protein, dimer dissociation model (Kdimer); Hans-LanM with 2 equiv. Dy^III; 30 mM MOPS, 100 mM KCl, pH 7.0, 30 C
Procedure: as §1

[22] = target: the molecule itself; assay: ITC, dimer dissociation model, 5% glycerol; apo R100K-Hans-LanM; unit not printed (Table 18: kcal/mol)
Procedure: as §1, §4

[23] = target: the molecule itself; assay: ITC, dimer dissociation model, 5% glycerol; apo R100K-Hans-LanM; unit not printed (Table 18: cal/mol/K)
Procedure: as §1, §4

[24] = target: the molecule itself; assay: ITC, dimer dissociation model, 5% glycerol; Dy-bound R100K-Hans-LanM; unit not printed (Table 18: kcal/mol)
Procedure: as §1, §4

[25] = target: the molecule itself; assay: ITC, dimer dissociation model, 5% glycerol; La-bound R100K-Hans-LanM; unit not printed (Table 18: kcal/mol)
Procedure: as §1, §4

[26] = target: the molecule itself; assay: ITC, dimer dissociation model, 5% glycerol; Dy-bound R100K-Hans-LanM; unit not printed (Table 18: cal/mol/K)
Procedure: as §1, §4

[27] = target: the molecule itself; assay: ITC, dimer dissociation model, 5% glycerol; La-bound R100K-Hans-LanM; unit not printed (Table 18: cal/mol/K)
Procedure: as §1, §4

[28] = target: the molecule itself; assay: ITC, dimer dissociation model, buffer with 5% glycerol; apo R100K-Hans-LanM; ITC dimer dissociation model, 5% glycerol; apo R100K
Procedure: as §1, §4

[29] = target: the molecule itself; assay: ITC, dimer dissociation model, buffer with 5% glycerol; Dy-bound R100K-Hans-LanM; ITC dimer dissociation model, 5% glycerol; Dy-bound R100K
Procedure: as §1, §4

[30] = target: the molecule itself; assay: ITC, dimer dissociation model, buffer with 5% glycerol; La-bound R100K-Hans-LanM; ITC dimer dissociation model, 5% glycerol; La-bound R100K
Procedure: as §1, §4

[31] = target: the molecule itself; assay: ITC, dimer dissociation model, 5% glycerol; apo R100K-Hans-LanM; unit not printed (Table 18: kcal/mol); ITC dimer dissociation model, 5% glycerol; apo R100K
Procedure: as §1, §4

[32] = target: the molecule itself; assay: ITC, dimer dissociation model, 5% glycerol; Dy-bound R100K-Hans-LanM; unit not printed (Table 18: kcal/mol); ITC dimer dissociation model, 5% glycerol; Dy-bound R100K
Procedure: as §1, §4

[33] = target: the molecule itself; assay: ITC, dimer dissociation model, 5% glycerol; La-bound R100K-Hans-LanM; unit not printed (Table 18: kcal/mol); ITC dimer dissociation model, 5% glycerol; La-bound R100K
Procedure: as §1, §4

[34] = size exclusion chromatography; 20 µM LanM_012 with 4.0 equiv. Dy^III; settings: 20 µM protein, 5% glycerol, pH 7.0
[35] = size exclusion chromatography; 20 µM LanM_012 with 4.0 equiv. La^III; settings: 20 µM protein, 5% glycerol, pH 7.0
[36] = target: the molecule itself; assay: SEC-MALS of apo, Ca^II, La^III, Nd^III and Dy^III Mex-LanM (Table 17); self-association
Procedure: In-line size-exclusion chromatography and multi-angle light scattering (SEC-MALS). SEC-MALS experiments were conducted using an Agilent 1260 Infinity II HPLC system equipped with an autosampler and fraction collector, and the Wyatt SEC hydrophilic column had 5 μm silica beads, a pore size of 100 Å, and dimensions of 7.8×300 mm. Wyatt Technology DAWN MALS and Wyatt Optilab Refractive Index (RI) detectors were used for analyzing the molar mass of peaks that eluted from the column. The SEC-MALS system was equilibrated for 5 h with Buffer B. The system was calibrated with bovine serum albumin (BSA, monomer MW: 66 kDa) in the same buffer and normalization and alignment of the MALS and RI detectors were carried out. A volume of 15 μL of each sample was injected at a flow rate of 0.8 mL/min with a chromatogram run time of 25 min. Data were analyzed using the ASTRA software (Wyatt). When SAXS analysis was desired, a second run was performed with 150 μL protein (˜4 mg/mL) injected, and 200 μL fractions of the main peak were collected. BioSAXS data were subsequently collected in triplicate.
Table 17. Characterization of Hans- and Mex-LanM metal complexes using SEC-MALS. The concentrations of the protein samples loaded to the column were: 1.2-1.5 mg/mL for apo- and RE-bound Hans-LanM, 3 mg/mL for Ca^II-bound Hans-LanM, and 3 mg/mL for Mex-LanM. […]

B1: LanM_013 (Methyloligella sp. GL2 LanM, expressed construct; signal peptide removed and N-terminal Met added) (other)
chain: MGKAADAIQALDPDKDGTIDLNEAKAGAKAVFEKINPDGDGTLEVKELKGRLTKKELDAADPDNDGTLDMQEYEAVVTKQFELANPDNDGTVDEKELKTKEGKKLLKLIY
notes: Monomer
[1]
  binding result: no binding

B2: Hans-LanM (lanmodulin from Hansschlegelia quercus, wild type, lacking signal peptide, as expressed in this study) (other)
chain: ASGADALKALNKDNDDSLEIAEVIHAGATTFTAINPDGDTTLESGETKGRLTEKDWARANKDGDQTLEMDEWLKILRTRFKRADANKDGKLTAAELDSKAGQGVLVMIMK
notes: also called LanM_002; wt
[2]
  ΔG of dimer dissociation: 5.5 kcal/mol
  ΔH of dimer dissociation: 25.4 kcal/mol
  ΔS of dimer dissociation: 66 cal/mol/K
[3]
  ΔG of dimer dissociation: 5.9 kcal/mol
  ΔH of dimer dissociation: -5.3 kcal/mol
  ΔS of dimer dissociation: -37 cal/mol/K
[4]
  Apparent MW (SEC, kDa): 20 kDa
[5]
  Apparent MW (SEC, kDa): 25.5 kDa
[6]
  Apparent MW (SEC, kDa): 23 kDa
[7]
  Apparent MW (SEC, kDa): 17.9 kDa
[8]
  Apparent MW (SEC, kDa): 27.8 kDa
[9]
  Apparent MW (SEC, kDa): 26.1 kDa
[10]
  Apparent MW (SEC, kDa): 21.3 kDa
[11]
  fold enhancement of dimerization, La^III versus Dy^III: 100 fold
[12]
  Apparent MW (SEC, kDa): 27.8 kDa
[13]
  Kd: 100 µM
[14]
  Kd: 40 µM
[15]
  ΔG of dimer dissociation: 6.3 kcal/mol
  ΔH of dimer dissociation: 24 kcal/mol
[16]
  ΔS of dimer dissociation: 61 cal/mol/K
[17]
  ΔG of dimer dissociation: 6.1 kcal/mol
  ΔH of dimer dissociation: -5 kcal/mol
[18]
  ΔS of dimer dissociation: -36 cal/mol/K
[19]
  Kd: < 0.4 µM
[20]
  Kd: 117 µM
[21]
  Kd: 60 µM

B3: R100K-Hans-LanM (other)
chain: B2 chain with R77K
notes: Monomer; also called Hans-LanM(R100K); R100K variant
[22]
  ΔG of dimer dissociation: 6 kcal/mol
[23]
  ΔS of dimer dissociation: 37 cal/mol/K
[24]
  ΔG of dimer dissociation: 5.9 kcal/mol
[25]
  ΔG of dimer dissociation: 7 kcal/mol
[26]
  ΔS of dimer dissociation: -73 cal/mol/K
[27]
  ΔS of dimer dissociation: -84 cal/mol/K
[28]
  Kd: 82 µM
[29]
  Kd: 54 µM
[30]
  Kd: 14 µM
[31]
  ΔH of dimer dissociation: 16 kcal/mol
[32]
  ΔH of dimer dissociation: -16 kcal/mol
[33]
  ΔH of dimer dissociation: -19 kcal/mol

B4: LanM_012 (Xanthobacter flavus LanM, with signal peptide removed) (protein)
chain: MLTGKEFLRKYNKDKDSTVEIVEAIDLGTKVFKAINPDKDKTLEAAETKGRLSDEDWAQFNKDGDKTLELDEWLIIVRKRFNDADANKDGKLTEAELDAPAGQQLILLIAK
[34]
  apparent molecular weight (SEC): an apparent molecular weight of ˜29.1 kDa
[35]
  apparent molecular weight (SEC): an apparent molecular weight of ˜29.1 kDa

B5: Mex-LanM (lanmodulin from Methylorubrum extorquens AM1) (other)
chain: APTTTTKVDIAAFDPDKDGTIDLKEALAAGSAAFDKLDPDKDGTLDAKELKGRVSEADLKKLDPDNDGTLDKKEYLAAVEAQFKAANPDNDGTIDARELASPAGSALVNLIR
notes: also called LanM_001; M. extorquens LanM
[36]
  binding result: no binding (tested: 3 mg/mL loaded)
